According to publication PMC8351736 (Molecular Biology of the Cell, 2021):

T1: 6-histidine-tagged actin capping protein (His-Cap1/2 heterodimer) (S. cerevisiae, UniProt P28495 1-268; P13517 1-287)
T1 sequence (looked up) 1: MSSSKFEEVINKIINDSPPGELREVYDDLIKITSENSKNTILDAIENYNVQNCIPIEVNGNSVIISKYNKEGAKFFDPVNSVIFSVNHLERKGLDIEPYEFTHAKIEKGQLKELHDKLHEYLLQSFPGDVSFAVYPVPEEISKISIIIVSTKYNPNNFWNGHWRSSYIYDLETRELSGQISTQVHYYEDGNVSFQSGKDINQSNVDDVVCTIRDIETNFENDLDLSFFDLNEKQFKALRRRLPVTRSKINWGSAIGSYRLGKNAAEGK
T1 sequence (looked up) 2: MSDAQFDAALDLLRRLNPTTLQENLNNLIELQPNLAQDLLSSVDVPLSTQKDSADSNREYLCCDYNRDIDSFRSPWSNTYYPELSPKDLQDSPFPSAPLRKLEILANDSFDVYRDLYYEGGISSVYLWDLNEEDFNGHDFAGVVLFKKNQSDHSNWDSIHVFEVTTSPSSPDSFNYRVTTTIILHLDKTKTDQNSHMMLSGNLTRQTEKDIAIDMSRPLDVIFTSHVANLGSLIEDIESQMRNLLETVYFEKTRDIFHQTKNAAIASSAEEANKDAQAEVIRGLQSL

T2: 6-histidine-tagged Tda2 (His-Tda2) (S. cerevisiae, UniProt P40045 2-126)
T2 sequence: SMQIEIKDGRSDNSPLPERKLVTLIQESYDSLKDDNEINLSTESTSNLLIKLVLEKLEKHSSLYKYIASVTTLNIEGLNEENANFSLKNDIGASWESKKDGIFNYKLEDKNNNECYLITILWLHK

B1: Aim21^1-535-GST (domain or fragment, S. cerevisiae, UniProt P40563 1-535, looked up)
chain: MPSEVTPKVPERPSRRKTSELFPLSGSESGDIKANSEPPTPAGTPNVPTRRPILKAKTMTSFESGMDQESLPKVPLQRPVRRSTTEELNNVMNNTSKELEEIESLISKHNIHNVSRKKSPTSVEEGKVAAIHQNGQRSASDNKTSTNPSPLEKNEHEGAEGNESAISPSNLVNKSNNEVTEHSDSEDLTEKQKVHAALDNEAGDRSHFEEKLIPGDMKVQVDVSKDVEEGSLNALPPSGITESDDKAEKFTKHPESSLEELQKHQEQQEEKIFQNPTDEESTTSLNEKQEGKDNMEVNSQPQGPSDTETVIAATSSNVPSQIASEEENDVPVIPRSRPKKDFEAHVQKEELPNTQEKRVSEECDSTLISTEEESKIPKIPSERPKRRAPPPVPKKPSSRIAAFQEMLQKQQQQDLHNNGNSSATTASADIAKKHTDSSITSDTTKADFTSKLNGLFALPGMVNPGQLPPSLEKKLSSPDTESKLGPQDQSQAKTGPLGGTRRGRGPRGRKLPSKVASVEKIEEDDNTNKIEIFNN
B2: GST-Aim21^510-555 F533A (domain or fragment, S. cerevisiae, UniProt P40563 510-555, looked up)
chain: KLPSKVASVEKIEEDDNTNKIEIANNWNVSSSFSKEKVLIDTTPGE

Legend:
[1] = target: T1, 6-histidine-tagged actin capping …; assay: pull-down
[2] = target: T2, 6-histidine-tagged Tda2 (His-Tda2); assay: pull-down

binding result [1] | binding result [2] | Binder
binds | – | B1
– | binds | B2
